Laboratory results as given in publication PMC5549993, “Bacterial effector NleL promotes enterohemorrhagic E. coli-induced attaching and effacing lesions by ubiquitylating and inactivating JNK” (PLoS Pathogens, 2017).
Positions count from the first letter of the chain named.

Key:
[1] = target: T1, GST-tagged wild-type NleL (full length) (E. coli O157:H7 Sakai strain, UniProt A0A0H3JDV8 1-782); assay: pull-down; conditions: both partners purified
T1 construct: also called GST-NleL; EspX7; source: E. coli BL21 (DE3), purified (Glutathione Sepharose)
T1 sequence: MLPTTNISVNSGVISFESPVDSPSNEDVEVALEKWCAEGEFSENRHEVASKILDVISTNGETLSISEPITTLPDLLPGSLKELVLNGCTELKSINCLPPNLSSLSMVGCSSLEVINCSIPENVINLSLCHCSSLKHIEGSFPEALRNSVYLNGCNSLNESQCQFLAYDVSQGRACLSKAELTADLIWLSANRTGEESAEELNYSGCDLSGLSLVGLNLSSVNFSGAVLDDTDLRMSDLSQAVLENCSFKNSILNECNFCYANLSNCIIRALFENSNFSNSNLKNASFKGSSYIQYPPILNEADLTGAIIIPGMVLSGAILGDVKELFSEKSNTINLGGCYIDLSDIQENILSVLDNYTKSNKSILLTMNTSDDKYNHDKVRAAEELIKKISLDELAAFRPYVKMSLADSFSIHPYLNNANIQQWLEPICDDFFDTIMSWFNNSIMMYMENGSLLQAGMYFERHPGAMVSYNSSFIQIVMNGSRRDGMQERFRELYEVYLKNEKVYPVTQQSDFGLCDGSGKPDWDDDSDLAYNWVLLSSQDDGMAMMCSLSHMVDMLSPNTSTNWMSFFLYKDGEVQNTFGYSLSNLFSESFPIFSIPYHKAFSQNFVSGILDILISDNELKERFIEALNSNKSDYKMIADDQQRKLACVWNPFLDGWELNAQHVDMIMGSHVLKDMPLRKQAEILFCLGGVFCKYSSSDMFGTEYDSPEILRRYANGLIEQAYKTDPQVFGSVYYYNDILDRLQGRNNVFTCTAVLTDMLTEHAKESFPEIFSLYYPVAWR

[2] = target: T2, GST-tagged NleL C753A mutant (E. coli O157:H7 Sakai strain, UniProt A0A0H3JDV8 1-782, C753A); assay: pull-down; conditions: both partners purified
T2 construct: also called GST-NleL-CA; NleL-CA
T2 sequence: T1 sequence with C753A

B1: His6-tagged JNK1 purified from bacteria (enzyme, human, UniProt P45983-2 1-384, looked up)
chain: MSRSKRDNNFYSVEIGDSTFTVLKRYQNLKPIGSGAQGIVCAAYDAILERNVAIKKLSRPFQNQTHAKRAYRELVLMKCVNHKNIIGLLNVFTPQKSLEEFQDVYIVMELMDANLCQVIQMELDHERMSYLLYQMLCGIKHLHSAGIIHRDLKPSNIVVKSDCTLKILDFGLARTAGTSFMMTPYVVTRYYRAPEVILGMGYKENVDLWSVGCIMGEMVCHKILFPGRDYIDQWNKVIEQLGTPCPEFMKKLQPTVRTYVENRPKYAGYSFEKLFPDVLFPADSEHNKLKASQARDLLSKMLVIDASKRISVDEALQHPYINVWYDPSEAEAPPPKIPDKQLDEREHTIEEWKELIYKEVMDLEERTKNGVIRGQPSPLAQVQQ
notes: human JNK1α1 (MAPK8), in pET28a with 6x His tag; also called His-JNK1; source: E. coli BL21 (DE3), purified (Ni-NTA)
[1]
  binding result: binds
[2]
  binding result: binds
